The values that follow come from patent publication US20120308570A1, “METHODS FOR TREATING DISEASES” (priority 2009, published 2012).

The target of experiment [1] is T1, full-length iNOS protein (endogenous, from LPS/IFNγ-treated mouse bone marrow-derived macrophages) (mouse, UniProt P29477 1-1144).
T1 construct: Not purified: present in macrophage lysates; Detected by Western blot with anti-iNOS antibody; also called NOS2; inducible nitric oxide synthase
T1 sequence: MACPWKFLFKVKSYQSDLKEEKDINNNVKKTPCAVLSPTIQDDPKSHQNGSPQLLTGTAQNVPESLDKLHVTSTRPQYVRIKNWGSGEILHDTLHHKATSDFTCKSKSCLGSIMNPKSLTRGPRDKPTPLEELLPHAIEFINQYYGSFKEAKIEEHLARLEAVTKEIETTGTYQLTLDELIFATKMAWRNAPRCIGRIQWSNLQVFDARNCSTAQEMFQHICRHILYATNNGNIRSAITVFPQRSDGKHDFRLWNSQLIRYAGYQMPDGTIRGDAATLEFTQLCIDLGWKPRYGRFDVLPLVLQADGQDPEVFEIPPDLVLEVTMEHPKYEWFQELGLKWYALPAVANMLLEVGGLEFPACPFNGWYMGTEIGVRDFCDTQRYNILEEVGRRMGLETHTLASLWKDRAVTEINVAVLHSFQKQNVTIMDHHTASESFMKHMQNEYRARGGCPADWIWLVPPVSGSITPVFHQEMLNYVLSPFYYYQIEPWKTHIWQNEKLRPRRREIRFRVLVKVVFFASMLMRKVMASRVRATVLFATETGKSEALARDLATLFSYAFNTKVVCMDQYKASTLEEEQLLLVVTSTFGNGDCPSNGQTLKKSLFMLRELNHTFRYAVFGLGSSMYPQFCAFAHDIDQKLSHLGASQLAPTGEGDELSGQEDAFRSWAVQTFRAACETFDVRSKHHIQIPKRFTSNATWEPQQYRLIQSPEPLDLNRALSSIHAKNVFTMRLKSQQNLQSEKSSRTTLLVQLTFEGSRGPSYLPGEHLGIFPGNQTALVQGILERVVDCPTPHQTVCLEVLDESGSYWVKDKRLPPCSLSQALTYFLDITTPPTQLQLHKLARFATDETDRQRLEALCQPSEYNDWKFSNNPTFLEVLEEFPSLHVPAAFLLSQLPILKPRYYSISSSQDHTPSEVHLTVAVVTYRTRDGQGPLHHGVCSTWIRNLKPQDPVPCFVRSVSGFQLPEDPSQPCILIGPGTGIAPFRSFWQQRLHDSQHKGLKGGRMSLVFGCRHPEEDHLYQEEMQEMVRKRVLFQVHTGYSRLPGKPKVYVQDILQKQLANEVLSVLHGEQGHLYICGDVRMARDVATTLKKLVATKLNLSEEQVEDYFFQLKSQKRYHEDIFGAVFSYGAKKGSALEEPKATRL
The experiment can be described thus: anti-Flag co-immunoprecipitation, anti-iNOS Western blot. From the text:
FIG. 6. Interaction between iNOS and SSB-1, -2, and -4 and SSB-2 residues affecting 10 iNOS binding. (A) iNOS interacts preferentially with SSB-2 and SSB-4. 293T cells were transiently transfected with vector alone or cDNA encoding either Flag-tagged SSB-1, SSB-2, SSB-3 or SSB-4. Cells were lysed, and mixed with BMDM lysates from cells induced to express iNOS. Flag-tagged proteins were immunoprecipitated using anti-Flag antibodies (M2-beads) and separated by SDSPAGE. Co-immunoprecipitation of iNOS was detected by Western blot with anti-iNOS antibodies (upper panel). Membranes were stripped and reprobed with rat anti-Flag antibodies (middle panel). Comparative expression of Flag-tagged proteins in 293T lysates is shown by Western blot (lower panel). (B) SSB-2 residues affecting iNOS binding. Residues in the SSB-2 SPRY domain were mutated to Ala or Phe (for Y120) based on SSB-2 structure and sequence conservation. 293T cells 20 were transiently transfected with cDNA encoding Flag-tagged wild-type or mutant SSB-2. Cells were lysed, and mixed with BMDM lysates from cells induced to express iNOS. Flag-tagged proteins were immunoprecipitated using anti-Flag antibodies and separated by SDS-PAGE. Coimmunoprecipitation of iNOS was detected by Western blot with anti-iNOS antibodies.

Experiment [2] concerns the target T1, full-length iNOS protein (endogenous, …). The experiment can be described thus: anti-Flag immunoprecipitation from transgenic BMDM, anti-iNOS re-blot. The procedure:
Cells were incubated with IFNγ and LPS as described, and lysed in KALB lysis buffer (Nicholson et al., 1995) containing protease inhibitors (Complete Cocktail tablets, Roche), 1 mM phenylmethylsulphonyl fluoride, 1 mM Na₃VO₄ and 1 mM NaF. Proteins were immunoprecipitated using anti-Flag antibody conjugated to Sepharose (M2; EASTMAN KODAK). Proteins were separated by sodium dodecyl sulphatepolyacrylamide gel electrophoresis (SDS-PAGE) under reducing conditions and electrophoretically transferred to Biotrace PVDF membranes (Pall Corp. Ann Arbor, Mich.). Membranes were blocked overnight in 10% w/v skim milk and incubated with primary antibody for 2 h. Antibody binding was visualized with either peroxidase-conjugated goat anti-rat immunoglobulin (Southern Biotech) or peroxidase-conjugated sheep anti-rabbit immunoglobulin (Chemicon, Melbourne, Australia), and the enhanced chemiluminescence (ECL) system (Amersham, Little Chalfont, Buckinghamshire, UK). To re-blot, the membrane was first stripped of antibodies in 0.1 M glycine, pH 2.9.
As genetic deletion of SSB-2 appeared to result in elevation of iNOS levels, it was tested whether artificially increasing SSB levels could correspondingly down-regulate iNOS expression. BMDM were generated from mice expressing either a Flag-tagged Ssb-1 or Ssb-2 transgene under a constitutive promoter (Ssb-1^{T/+}, Ssb-2^{T/+}) and from wild-type littermate control mice. […] Macrophage expression of the SSB transgenes was confirmed by anti-FLAG immunoprecipitation and Western blot (FIGS. 9C and 10C, top panels).

Experiment [3] concerns the target T2, Y120A-SSB-2ΔSB (murine SSB-2 residues 12-224 with tyrosine 120 mutated to alanine) (mouse, UniProt O88838 12-224).
T2 construct: also called SSB-2-Y120A
T2 chain: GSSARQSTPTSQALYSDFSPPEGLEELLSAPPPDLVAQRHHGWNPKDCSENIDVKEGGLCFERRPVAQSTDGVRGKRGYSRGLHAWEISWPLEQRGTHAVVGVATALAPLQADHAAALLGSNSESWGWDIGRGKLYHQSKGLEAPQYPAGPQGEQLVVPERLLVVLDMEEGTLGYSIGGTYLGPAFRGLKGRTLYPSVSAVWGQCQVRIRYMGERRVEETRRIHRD
Description: ITC. As to the method:
(§1) Wild-type and mutant iNOS peptides (Table 2), corresponding to Lys19-Thr31 of mouse iNOS, were synthesized by GL Biochem (Shanghai) Ltd. These peptides were N-terminal acetylated and C-terminal amidated. All ITC measurements were carried out at 25° C. using a Microcal omega VP-ITC (Microcal Inc., Northampton, Mass.). SSB-2ΔSB was dialysed against buffer (100 mM TrisHCl, 150 mM NaCl, pH 8.0), and wild-type and mutant iNOS N-terminal peptides were prepared in the same buffer from 5 mM stocks. Solutions of 5 to 10 μM SSB-2ΔSB in the cell were titrated by injection of a total of 290 μL of 50-200 μM of iNOS peptides. Data analysis was performed using the evaluation software, MicroCal Origin version 5.0. All curves were fitted using the nonlinear least-squares fitter and the “One Set of Sites” model.
(§2) Mutation of Glu21 had no effect on SSB-2:iNOS peptide binding. […] Binding of an SSB-2-SPRY domain in which tyrosine 120 had. been mutated to alanine (Y120A-SSB-2ΔSB) was assessed by ITC.
(Isothermal titration calorimetry measures the heat released or taken up as one component is titrated into another.)

The target in experiment [4] is T3, SSB-2ΔSB (recombinant murine SSB-2 SPRY domain, residues 12-224) (mouse, UniProt O88838 12-224).
T3 construct: 226 residues in total; expressed as GST fusion in E. coli, GST cleaved off with thrombin; 15N-labelled for NMR; coupled to NHS-Sepharose for pull-downs; also called SPSB2
T3 sequence: T2 chain with A115Y
The experiment can be described thus: ITC, 25 C, peptide injected into SSB-2ΔSB. As to the method: (§3) FIG. 3. Typical ITC raw data and titration curves for SSB-2 and iNOS peptide interactions. Titration curves were fitted using the “One Set of Sites” model in MicroCal Origin.
as §1

In experiment [5] the target is T2, Y120A-SSB-2ΔSB (murine SSB-2 residues …). The experiment can be described thus: ITC, 25 C, wild-type peptide with Y120A-SSB-2ΔSB. The procedure:
as §3, §1

Experiment [6] concerns the target T3, SSB-2ΔSB (recombinant murine SSB-2 SPRY …). Description: ITC. As to the method: as §1, §2

Residue numbers refer to the chain shown, from its start.

B1: Flag-tagged SSB-2 mutant R100/G101 to alanine (other)
chain: DYKDDDDKMGQTALARGSSSTPTSQALYSDFSPPEGLEELLSAPPPDLVAQRHHGWNPKDCSENIDVKEGGLCFERRPVAQSTDGVRGKRGYSRGLHAWEISWPLEQAATHAVVGVATALAPLQADHYAALLGSNSESWGWDIGRGKLYHQSKGLEAPQYPAGPQGEQLVVPERLLVVLDMEEGTLGYSIGGTYLGPAFRGLKGRTLYPSVSAVWGQCQVRIRYMGERRVEEPQSLLHLSRLCVRHALGDTRLGQISTLPLPPAMKRYLLYK
Turning to B1, in experiment [1], the binding result is on record as “no binding”.

B2: Flag-tagged SSB-2 mutant V206 to alanine (other)
chain: B1 chain with A108R, A109G, V214A
Turning to B2, the binding result in experiment [1] was “no binding”.

B3: Flag-tagged SSB-2 mutant Y120 to phenylalanine (other)
chain: B1 chain with A108R, A109G, Y128F
Take B3: in experiment [1], the binding result is recorded as “no binding”.

B4: Flag-tagged SSB-2 mutant Y120 to alanine (other)
chain: B1 chain with A108R, A109G, Y128A
Regarding B4, in experiment [1], the binding result is given as “no binding”.

B5: Flag-tagged SSB-2 transgene product (a.a. 3-265), in BMDM of Ssb-2 T/+ mice (other)
chain: DYKDDDDKQTALARGSSSTPTSQALYSDFSPPEGLEELLSAPPPDLVAQRHHGWNPKDCSENIDVKEGGLCFERRPVAQSTDGVRGKRGYSRGLHAWEISWPLEQRGTHAVVGVATALAPLQADHYAALLGSNSESWGWDIGRGKLYHQSKGLEAPQYPAGPQGEQLVVPERLLVVLDMEEGTLGYSIGGTYLGPAFRGLKGRTLYPSVSAVWGQCQVRIRYMGERRVEEPQSLLHLSRLCVRHALGDTRLGQISTLPLPPAMKRYLLYK
notes: The printed end of the range may exceed the entry's length; also called full-length SSB-2
For B5, the binding result in experiment [2] is reported as “binds”.

B6: iNOS N-terminal peptide I, wild-type, Ac-KEEKDINNNVKKT-NH2 (peptide)
peptide: Ac-KEEKDINNNVKKT-NH2
notes: Synthetic peptide (GL Biochem); also called wild-type iNOS peptide; iNOS peptide
With B6, the “fold reduced affinity against SSB-2ΔSB” value in experiment [3] was roughly 5000 fold. The Kd (in general, the equilibrium constant for the complex coming apart) in experiment [4] is 13.3 nM; in experiment [5], 76300 nM.

B7: iNOS N-terminal peptide XIII, Ac-KEEKDINNNVKAT-NH2 (peptide)
peptide: Ac-KEEKDINNNVKAT-NH2
For B7, the “fold lower binding affinity than the wild-type peptide” value in experiment [6] is 2 fold. The Kd in experiment [4] was 29.8 nM.

B8: iNOS N-terminal peptide XV, Ac-KEEADINNNAKAT-NH2 (peptide)
peptide: Ac-KEEADINNNAKAT-NH2
B8: the “fold decrease of binding affinity against the wild-type peptide” value in experiment [6] was roughly 24 fold. Also, the dissociation constant Kd in experiment [4] is 311 nM.

B9: iNOS N-terminal peptide XII, Ac-KEEKDINNNAKKT-NH2 (peptide)
peptide: Ac-KEEKDINNNAKKT-NH2
With B9, the “fold lower binding affinity than the wild-type peptide” value in experiment [6] was 2 to 4 fold. Further, the Kd in experiment [4] amounted to 56.8 nM.

B10: Flag-tagged SSB-2ΔSB transgene product (a.a. 2-224, without the SOCS box), in BMDM of Ssb-2ΔSB T/+ mice (other)
chain: DYKDDDDKGQTALARGSSSTPTSQALYSDFSPPEGLEELLSAPPPDLVAQRHHGWNPKDCSENIDVKEGGLCFERRPVAQSTDGVRGKRGYSRGLHAWEISWPLEQRGTHAVVGVATALAPLQADHYAALLGSNSESWGWDIGRGKLYHQSKGLEAPQYPAGPQGEQLVVPERLLVVLDMEEGTLGYSIGGTYLGPAFRGLKGRTLYPSVSAVWGQCQVRIRYMGERRVEE
notes: also called SOCS box-deleted SSB-2
In the case of B10, the binding result in experiment [2] is “binds”.

B11: Flag-tagged SSB-1ΔSB transgene product (a.a. 2-233, without the SOCS box), in BMDM of Ssb-1ΔSB T/+ mice (other)
chain: DYKDDDDKGQKVTGGIKTVDMRDPTYRPLKQELQGLDYCKPTRLDLLLDMPPVSYDVQLLHSWNNNDRSLNVFVKEDDKLIFHRHPVAQSTDAIRGKVGYTRGLHVWQITWAMRQRGTHAVVGVATADAPLHSVGYTTLVGNNHESWGWDLGRNRLYHDGKNQPSKTYPAFLEPDETFIVPDSFLVALDMDDGTLSFIVDGQYMGVAFRGLKGKKLYPVVSAVWGHCEIRMRYLNGLDPE
notes: also called SOCS box-deleted SSB-1
With B11, the binding result in experiment [2] was “binds”.

B12: Flag-tagged SSB-1 transgene product (a.a. 2-274), in BMDM of Ssb-1 T/+ mice (other)
chain: DYKDDDDKGQKVTGGIKTVDMRDPTYRPLKQELQGLDYCKPTRLDLLLDMPPVSYDVQLLHSWNNNDRSLNVFVKEDDKLIFHRHPVAQSTDAIRGKVGYTRGLHVWQITWAMRQRGTHAVVGVATADAPLHSVGYTTLVGNNHESWGWDLGRNRLYHDGKNQPSKTYPAFLEPDETFIVPDSFLVALDMDDGTLSFIVDGQYMGVAFRGLKGKKLYPVVSAVWGHCEIRMRYLNGLDPEPLPLMDLCRRSVRLALGKERLGAIPALPLPASLKAYLLYQ
notes: The printed end of the range may exceed the entry's length; also called full-length SSB-1
For the molecule B12, the binding result in experiment [2] is recorded as “binds”.
